One data set has as its system NF-κB. Description: NF-κB luciferase reporter and phospho-NFκB flow cytometry in Raji cells with LRBA knockdown. The class given is cell-based, human. The source says:
FIG. 45A-D. Knockdown of LRBA deregulates NFκB. (A) Knockdown of LRBA increases NFκB luciferase activity. An NFκB luciferase reporter was used to measure the NFκB transcription activity. The data are shown as scatter with bar graph of mean with standard error of mean (SEM). (B) Knockdown of LRBA increases phospho-NFκB. The Phosflow kit including Cytofix Fixation Buffer, Phosflow Perm Buffer III and Stain Buffer (BD) and phospho-antibodies, NFκB p65 (pS529) PE-Cy7 were used for the intracellular staining following the company's instruction. For each samples, 50,000 cells were recorded for the FACS assay. (C) A549 cells were stably transfected with LRBA shRNA knockdown plasmid and several clones were picked up. […]
FIGS. 46(A) and (B). […] NFκB luciferase activity was measured at each time point for both cell lines as in A. RLU: Relative Light Units. […]
NF-κB is the central regulator of the immune system and plays a pivotal role in inflammation and immune responses. […] Raji cells were stimulated with LPS for different times from zero to several hours, and the NF-κB activity was measured by NF-κB luciferase reporter. […]
Ready-To-Glow™ NF-κB Secreted Luciferase Reporter System (Clontech) and Firefly Luciferase Assay Kit (Biotium, Calif., USA) were used following the manufacture's instruction.

For a further data set, the system named is Raji B cells. The data set can be described thus: Cytokines of Raji and Raji-9 cells treated with LPS (ELISA, CBA). The class given is cell-based, human. As for the experimental part:
FIG. 21 are graphs showing knockdown of LRBA increases the TNFα levels in Raji B (Burkitt's lymphoma) cells. Raji B cells and Raji-9 (stably transfected with shRNA plasmid against LRBA) B cells were treated with LPS (1 μg/ml). The TNFa concentrations were measured by Human TNFα DuoSet ELISA kit (R&D) following the manufacture's instruction. A. Culture supernatant; B. Cell lysate. #=p<0.07, *=p<0.05, **=p<0.005.
FIGS. 48(A)-(I). Knockdown of LRBA influences the levels of cytokines. A. Raji cells (LRBA WT or KD) were seeded in a 24 well plate wells and stimulated with LPS for 15 min (1), 30 min (2) and 1 hr (3) with 0.26 million cells in each well or for 2 h (4), 4 h (5) and 24 h (6) with 0.2 million cells in each well, 0.2 million of cells were plated in each well. ELISA and CBA assays of TNFα and IL-10. Cells were treated as in A. 0.2×10^6 cells, timepoint. 500 uL total volume medium. Duoset ELISA human TNF-a kit protocol was followed for cell culture supernatant. Blues: Raji (♦); Red: Raji9 (▪). Data are representative of 2 to 5 separate experiments.
Cell culture supernatants were directly used to detect human Th1 and Th2 cytokines (IL-2, IL-4, IL-5, IL-6, IL-10, TNFα and IFN-γ) using the human Th1/Th2 cytokine bead-array kit (BD Biosciences, San Jose, Calif.) according to the manufacturer's instructions. The TNF[…] concentrations were also measured by Human TNF[…] DuoSet ELISA kit (R&D, Catalog #DY210).

These results are taken from patent US10654918B2, “Inflammatory disease diagnosis and methods of treatment using down-regulators of lipopolysaccharide-responsive beige-like anchor” (University of South Florida, priority 2013, dated 2020).

B1: LRBA shRNA: shRNA plasmid against LRBA; targeted LRBA sequence SEQ ID No. 15 GGGATATTGTAGAAACTGTCTTT (nucleic acid)
sense: GGGATATTGTAGAAACTGTCTTTTTCAAGAGAAAAGACAGTTTCTACAATATCCCTTTTTT
antisense: CCCTATAACATCTTTGACAGAAAAAGTTCTCTTTTCTGTCAAAGATGTTATAGGGAAAAAA
Turning to B1, the “phospho-NFκB (pS529), flow cytometry” value in the data set with NF-κB (Raji cells) was “increases”. Also, the “average levels of the NF-κB activity (luciferase reporter)” value in the data set on NF-κB (Raji cells stimulated with LPS, zero to several hours) is listed as “higher”. The “TNFα levels in cell culture supernatants and cell lysates (ELISA)” value with Raji B cells (LPS stimulation for 15 min to 24 h, vs untransfected Raji B cells) is reported as “significantly increased”. In the data set with Raji B cells (Raji cells, LPS), the “secreted levels of IL-10 (CBA)” value is listed as “significantly increased” and the “secreted levels of TNFα (CBA)” value was “significantly increased”.
